Data reported in patent US8435548 (BIO FD AND C, dated 2013).
Where no end group is shown, it is not given here. The star is where a group is joined. Galloyl = O=C(c1cc(O)c(O)c(O)c1)*

B1: Digalloyl-tetrapeptide (lysyl-glutamyl-cysteinyl-glycine) (peptide)
peptide: KECG
modifications: also: two galloyl groups, attachment sites shown only in formula IV
B2: Galloyl-tripeptide (glutamyl-cysteinyl-glycine) (peptide)
peptide: Galloyl-Glu-Cys-Gly
B3: Galloyl-tetrapeptide (lysyl-glutamyl-cysteinyl-glycine) (peptide)
peptide: Galloyl-KECG
B4: Digalloyl-tetrapeptide (lysyl-tyrosyl-histidyl-tyrosine) (peptide)
peptide: KYHY
modifications: also: two galloyl groups, attachment sites not given here
B5: Galloyl-decapeptide (tyrosyl-glycyl-glycyl-phenylalanyl-leucyl-arginyl-lysyl-tyrosyl-prolyl-lysine) (peptide)
peptide: Galloyl-YGGFLRKYPK
B6: Galloyl-tripeptide (tyrosyl-histidyl-tyrosine) (peptide)
peptide: Galloyl-Tyr-His-Tyr

molecular target: mushroom tyrosinase (1,500 units/ml, Sigma) (mushroom); assay: cell-based or functional assay

**Q.** For B1, which “Inhibition (%) of tyrosinase activity (absorbance at 490 nm, L-tyrosine substrate, compound at 100 µM)” value (shortened to “Inhibition (%) of tyrosinase activity”) is on record?
**A.** 52%

**Q.** With B2 as the binder, how does the “Inhibition (%) of tyrosinase activity” value read?
**A.** 34%

**Q.** How did the “Inhibition (%) of tyrosinase activity” value turn out when B3 was run?
**A.** 40%

**Q.** Which “Inhibition (%) of tyrosinase activity” value does the source give for B4 here?
**A.** 21%

**Q.** For B5, which “Inhibition (%) of tyrosinase activity” value is on record?
**A.** 5%

**Q.** How did the “Inhibition (%) of tyrosinase activity” value turn out when B6 was run?
**A.** 15%
